The values below come from patent US20130302346A1 (LEXICON PHARMACEUTICALS, published 2013).

Test in all cases: ELISA on conditioned medium of HEK293F transfected with the NOTUM construct (Example 6.7)
(In an ELISA, binding on a coated surface is turned into a signal by an enzyme label.)

The target of one experiment is T1, M-H-M.
T1 construct: Drawn on the sheet as mouse up to the M177 line, a human middle segment, then a mouse C-terminal part; Conditioned medium from transfected HEK293F; also called Mouse-human-mouse chimeric NOTUM
T1 single chain: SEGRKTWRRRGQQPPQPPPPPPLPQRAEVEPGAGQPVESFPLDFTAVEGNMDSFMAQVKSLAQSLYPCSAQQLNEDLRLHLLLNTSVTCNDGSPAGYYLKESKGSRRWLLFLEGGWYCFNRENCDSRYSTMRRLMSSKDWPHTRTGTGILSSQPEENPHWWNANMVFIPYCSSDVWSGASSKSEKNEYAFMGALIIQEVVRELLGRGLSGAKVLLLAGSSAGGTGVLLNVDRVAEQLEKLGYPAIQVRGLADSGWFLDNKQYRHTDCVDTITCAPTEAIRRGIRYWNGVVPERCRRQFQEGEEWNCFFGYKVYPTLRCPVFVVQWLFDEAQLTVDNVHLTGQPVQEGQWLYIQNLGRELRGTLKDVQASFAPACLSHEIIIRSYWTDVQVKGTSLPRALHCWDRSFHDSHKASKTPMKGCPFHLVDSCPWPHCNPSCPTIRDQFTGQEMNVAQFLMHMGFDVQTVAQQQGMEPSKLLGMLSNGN
From the text: (§1) The sequences of those proteins are shown in Section 7 (Table of Sequences). The conditioned media were used in ELISA format to determine antibody specificity. […] Within this region, mouse and human NOTUM differ at five positions (R115K, D141S. R150K, R154H, and Y171H, based on the human sequence numbering). Human NOTUM point mutants were generated by transient transfection of constructs expressing human NOTUM with the mouse amino acid at each of these five positions and the point mutants were all shown to be functional in the OPTS assay.

The target of another experiment is T2, M-H.
T2 construct: Drawn on the sheet as mouse N-terminal part and human C-terminal part; Conditioned medium from transfected HEK293F; also called Mouse-human chimeric NOTUM
T2 single chain: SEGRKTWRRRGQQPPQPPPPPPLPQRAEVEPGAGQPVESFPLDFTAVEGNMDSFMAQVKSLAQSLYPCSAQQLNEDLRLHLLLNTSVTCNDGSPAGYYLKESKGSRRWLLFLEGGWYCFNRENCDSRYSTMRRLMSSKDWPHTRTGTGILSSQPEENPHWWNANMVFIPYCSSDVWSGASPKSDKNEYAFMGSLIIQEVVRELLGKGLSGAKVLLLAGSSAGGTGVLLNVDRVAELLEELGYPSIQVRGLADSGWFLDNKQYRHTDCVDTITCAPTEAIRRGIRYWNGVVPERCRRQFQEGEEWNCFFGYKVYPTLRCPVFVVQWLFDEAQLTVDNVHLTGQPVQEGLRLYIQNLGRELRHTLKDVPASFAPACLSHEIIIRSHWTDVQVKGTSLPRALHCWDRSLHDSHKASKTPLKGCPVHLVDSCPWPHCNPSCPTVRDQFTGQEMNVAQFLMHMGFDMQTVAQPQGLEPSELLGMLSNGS
Excerpt: as §1

The target in a further experiment is T3, H(N96D).
T3 construct: Human NOTUM with N96D, marked inside the Q47-M177 box on the sheet; also called Human NOTUM N96D
T3 single chain: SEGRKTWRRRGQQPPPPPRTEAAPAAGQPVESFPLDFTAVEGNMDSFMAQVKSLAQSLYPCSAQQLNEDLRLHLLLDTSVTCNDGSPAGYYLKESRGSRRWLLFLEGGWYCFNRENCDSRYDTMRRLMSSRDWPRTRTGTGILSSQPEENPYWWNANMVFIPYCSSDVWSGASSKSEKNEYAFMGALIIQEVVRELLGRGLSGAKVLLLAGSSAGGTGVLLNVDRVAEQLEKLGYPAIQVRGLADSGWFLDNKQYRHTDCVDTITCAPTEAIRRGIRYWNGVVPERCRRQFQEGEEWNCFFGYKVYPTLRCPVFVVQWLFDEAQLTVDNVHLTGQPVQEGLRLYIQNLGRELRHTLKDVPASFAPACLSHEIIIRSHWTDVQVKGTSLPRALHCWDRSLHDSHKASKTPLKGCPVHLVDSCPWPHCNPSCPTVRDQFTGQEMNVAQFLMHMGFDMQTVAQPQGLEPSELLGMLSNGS
Excerpt: as §1

The next experiment concerns the target T4, H(Q47).
T4 construct: Drawn on the sheet as a signal peptide (SP) followed by human NOTUM starting at Q47; CD33 signal peptide'; also called Human NOTUM (delta 1-46) with CD33 signal peptide
T4 single chain: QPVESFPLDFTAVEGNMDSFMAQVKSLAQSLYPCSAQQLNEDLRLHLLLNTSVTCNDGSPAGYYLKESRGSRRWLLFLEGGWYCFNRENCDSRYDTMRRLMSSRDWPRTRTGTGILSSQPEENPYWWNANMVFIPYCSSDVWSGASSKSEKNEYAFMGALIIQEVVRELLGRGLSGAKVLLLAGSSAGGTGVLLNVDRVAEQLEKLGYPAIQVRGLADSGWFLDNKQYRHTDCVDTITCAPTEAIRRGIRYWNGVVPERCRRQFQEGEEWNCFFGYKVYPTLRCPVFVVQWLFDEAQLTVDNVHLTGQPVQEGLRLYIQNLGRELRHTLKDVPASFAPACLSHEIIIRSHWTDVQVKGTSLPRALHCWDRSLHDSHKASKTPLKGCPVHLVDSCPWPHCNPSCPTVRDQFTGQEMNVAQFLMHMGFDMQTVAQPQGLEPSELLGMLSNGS
Excerpt: as §1

B1: MAb 1.802 (antibody, V domains shown)
VH: EVQLVESGGGLVKPGGSLKLSCAASGFTFSDYGMHWFRQAPEKGLEWVAYISSGSRTVYYADTVKGRFTISRDNAKNTLSLQMTSLRSEDTAMYYCARKHYNGGYFDVWGTGTTVTVSS
VL: DIVLTQSPASLAVSLGQRATISCRASKIVSTSGYSYMHWYQQKPGQPPKLLIYLASNLESGVPARFSGSGSGTDFTLNIHPVEEEDAATYYCQHSRELPPTFGSGTKLEIKR
notes: Mouse monoclonal antibody from Campaign 1 (raised against human NOTUM), IgG1
With B1, the binding result was “no binding” in the experiment with M-H-M, “no binding” with M-H, “binds” with H(N96D) and “binds” with H(Q47).

B2: MAb 1.815 (antibody, IgG1, V domains shown)
VH: DVQLLESGGGLVQPGGSRKLSCAASGFTFSDFGMHWVRQAPEKGLEWVAYSSSGGTTVYYADTVKGRLTLSRDNSKNTLFLEMTSLRSEDTAMYYCARASYDGGYFDCWGQGTSLTVSS
VL: DIVLTQSPASLAVSLGQRATISCRASKSVSTSGYSYIHWYQQKPGQPPKLLIYLASDLESGVPARFSGSGSGAAFTLNIHPVEEEDAATYYCHHSRELPFTFGSGTKLEIKR
notes: Mouse monoclonal antibody from Campaign 1, IgG1
Consider B2, for which the binding result in the experiment with M-H-M is “no binding”; in the experiment with M-H it was “no binding”; with H(N96D), “binds”; with H(Q47) it was “binds”.

B3: MAb 1.846 (antibody, IgG2b, V domains shown)
VH: EVQLVESGGDLVKPGGSLKLSCAASGFTFSDYGMHWLRQAPEKGLEWVAYISSGSTTLSYANTMKGRFTISRDNAKKTLSLQMTSLRSEDTAIYYCARKNYNGGYFDVWGTGTTVTVSS
VL: DIVLTQSPASLVVSLGQRATISCRASKSVSESGYSYMHWYQQKPGQPPKLLIYLASNLESGVPARFSGSGSGTDFTLNIHPVEEGDATTYYCQHSRVLPPTFGSGTKLEIKR
notes: Mouse monoclonal antibody from Campaign 1, IgG2b
B3: the binding result with M-H-M was “no binding”; in the experiment with M-H, “no binding”; with H(N96D), “binds”; with H(Q47), “binds”.
